Test results published in publication PMC13389190.

Target: SpAB-T7 RNAP

Bamlanivimab (antibody), sequence (VH): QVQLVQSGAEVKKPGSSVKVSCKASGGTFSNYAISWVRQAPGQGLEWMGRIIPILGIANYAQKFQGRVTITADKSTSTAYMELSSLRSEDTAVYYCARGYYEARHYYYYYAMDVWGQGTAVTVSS
Bamlanivimab (antibody), sequence (VL): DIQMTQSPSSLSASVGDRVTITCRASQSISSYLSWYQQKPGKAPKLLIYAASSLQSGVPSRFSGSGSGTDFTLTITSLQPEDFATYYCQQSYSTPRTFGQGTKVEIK

Question: For Bamlanivimab (antibody), which MDC (minimal detectable concentration of Bamlanivimab in the ZF-RBD / SpAB-T7 RNAP sensor, 2.5% human serum) is on record?
Answer: Its MDC (minimal detectable concentration of Bamlanivimab in the ZF-RBD / SpAB-T7 RNAP sensor, 2.5% human serum) is 12.7 nM.
